This is an account of results in PMC5510004, “Recruitment and positioning determine the specific role of the XPF‐ERCC1 endonuclease in interstrand crosslink repair”.

Series [1] deals with T1, XPF deltaNSGW;ERCC1 wild type (hsERCC1) (Xenopus laevis;Homo sapiens?, UniProt A0A8J0PXV9;P07992 1-897;1-297, del312-315|).
T1 sequence 1: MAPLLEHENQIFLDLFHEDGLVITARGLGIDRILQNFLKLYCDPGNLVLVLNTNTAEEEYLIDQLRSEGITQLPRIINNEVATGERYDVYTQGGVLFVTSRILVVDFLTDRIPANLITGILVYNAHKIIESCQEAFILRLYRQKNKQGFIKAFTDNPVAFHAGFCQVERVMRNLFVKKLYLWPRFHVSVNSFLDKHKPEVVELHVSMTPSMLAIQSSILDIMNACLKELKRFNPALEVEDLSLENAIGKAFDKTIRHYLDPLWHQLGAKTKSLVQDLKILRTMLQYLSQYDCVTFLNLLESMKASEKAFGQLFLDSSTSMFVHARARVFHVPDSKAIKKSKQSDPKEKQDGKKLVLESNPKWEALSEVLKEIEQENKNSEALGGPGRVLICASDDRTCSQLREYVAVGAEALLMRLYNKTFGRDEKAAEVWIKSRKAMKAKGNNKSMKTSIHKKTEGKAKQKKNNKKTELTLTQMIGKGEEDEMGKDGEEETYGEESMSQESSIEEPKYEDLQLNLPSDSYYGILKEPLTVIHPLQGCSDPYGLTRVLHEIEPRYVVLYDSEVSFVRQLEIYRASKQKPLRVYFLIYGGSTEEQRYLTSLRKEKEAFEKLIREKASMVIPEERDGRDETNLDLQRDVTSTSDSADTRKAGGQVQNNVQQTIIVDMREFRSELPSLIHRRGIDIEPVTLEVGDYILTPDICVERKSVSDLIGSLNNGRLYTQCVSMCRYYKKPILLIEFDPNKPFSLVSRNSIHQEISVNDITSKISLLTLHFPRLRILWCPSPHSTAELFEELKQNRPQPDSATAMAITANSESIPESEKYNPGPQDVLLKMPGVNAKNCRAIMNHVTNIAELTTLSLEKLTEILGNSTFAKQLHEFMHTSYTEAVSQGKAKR
T1 sequence 2: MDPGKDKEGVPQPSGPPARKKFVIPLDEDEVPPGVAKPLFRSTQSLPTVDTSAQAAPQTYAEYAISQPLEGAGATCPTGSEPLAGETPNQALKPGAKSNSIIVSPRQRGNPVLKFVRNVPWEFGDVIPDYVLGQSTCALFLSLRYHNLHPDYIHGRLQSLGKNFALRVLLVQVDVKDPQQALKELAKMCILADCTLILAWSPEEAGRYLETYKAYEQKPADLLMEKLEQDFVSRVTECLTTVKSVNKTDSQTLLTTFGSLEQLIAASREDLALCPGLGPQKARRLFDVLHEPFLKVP
The series is described as follows: fluorescence anisotropy; 2 mM Ca2+; comparable to wild type; 25 mM Hepes pH 8.0, 15% glycerol, 0.1 mg/ml BSA, 2 mM CaCl2, 10 nM DNA, 1 h at room temperature. The note with it: protein: recombinant;recombinant; tags: FLAG;His; copies: 1;1; label: 5'-FAM on F1; three strands 1:1:1.

The target of series [2] is T2, XPF R670S;ERCC1 wild type (hsERCC1) (Xenopus laevis;Homo sapiens?, UniProt A0A8J0PXV9;P07992 1-897;1-297, R670S|).
T2 sequence 1: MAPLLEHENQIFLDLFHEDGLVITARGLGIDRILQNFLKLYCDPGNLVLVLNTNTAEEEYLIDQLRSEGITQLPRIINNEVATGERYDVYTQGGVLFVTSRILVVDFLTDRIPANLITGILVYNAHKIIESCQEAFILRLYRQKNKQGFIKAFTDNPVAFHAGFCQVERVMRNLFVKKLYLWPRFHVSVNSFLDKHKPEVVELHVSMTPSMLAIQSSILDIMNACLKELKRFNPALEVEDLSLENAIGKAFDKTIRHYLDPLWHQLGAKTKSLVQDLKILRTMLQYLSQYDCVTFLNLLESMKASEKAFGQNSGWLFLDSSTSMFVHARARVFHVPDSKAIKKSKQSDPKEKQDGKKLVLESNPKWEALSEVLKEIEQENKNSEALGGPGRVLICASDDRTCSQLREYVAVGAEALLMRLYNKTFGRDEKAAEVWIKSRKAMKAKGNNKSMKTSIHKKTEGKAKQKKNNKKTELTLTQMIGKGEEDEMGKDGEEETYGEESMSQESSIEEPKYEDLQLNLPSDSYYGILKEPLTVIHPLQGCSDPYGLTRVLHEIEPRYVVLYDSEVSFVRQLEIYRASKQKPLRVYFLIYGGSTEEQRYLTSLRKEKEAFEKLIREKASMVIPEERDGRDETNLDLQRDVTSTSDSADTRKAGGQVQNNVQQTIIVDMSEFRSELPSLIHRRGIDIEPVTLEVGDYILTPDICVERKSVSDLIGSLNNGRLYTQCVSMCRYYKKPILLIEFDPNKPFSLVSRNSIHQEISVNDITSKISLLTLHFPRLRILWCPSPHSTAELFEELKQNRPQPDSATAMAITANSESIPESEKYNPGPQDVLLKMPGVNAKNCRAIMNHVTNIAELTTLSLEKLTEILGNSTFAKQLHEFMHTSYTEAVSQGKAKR
T2 sequence 2: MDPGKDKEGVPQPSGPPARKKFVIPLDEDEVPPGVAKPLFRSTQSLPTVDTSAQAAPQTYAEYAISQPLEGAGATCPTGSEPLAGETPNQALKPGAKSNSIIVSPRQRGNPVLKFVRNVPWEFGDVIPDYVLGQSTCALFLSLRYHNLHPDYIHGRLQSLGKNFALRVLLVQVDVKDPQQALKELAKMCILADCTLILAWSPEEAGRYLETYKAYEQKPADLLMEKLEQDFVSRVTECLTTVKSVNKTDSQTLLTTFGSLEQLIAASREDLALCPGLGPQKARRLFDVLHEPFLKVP
The description is as above. The note with it: protein: recombinant;recombinant; tags: FLAG;His; copies: 1;1; label: 5'-FAM on F1; three strands 1:1:1.

B1: 3' flap DNA substrate (F1+F2+F3) (dsDNA)
DNA 1: CGCGATGCGGATCCAA
DNA 2: CCTAGACTTAAGAGGCCAGACTTGGATCCGCATCGC
DNA 3: GGCCTCTTAAGTCTAGG
Take B1: the binding result in series [1] and in series [2] was “binds” throughout.
